The text below walks through data of paper PMC3651084.

The test concerns the target recombinant human HER3-Fc chimera (UniProt P21860). As to the kind of experiment: flow cytometry on staphylococcal-displayed mutants. To be noted: parent: est. 83; read off a plot. Background: In flow cytometry, cells or beads pass a laser one at a time.
Chain of UniProt P21860 (P21860 20-643, stated change not applied): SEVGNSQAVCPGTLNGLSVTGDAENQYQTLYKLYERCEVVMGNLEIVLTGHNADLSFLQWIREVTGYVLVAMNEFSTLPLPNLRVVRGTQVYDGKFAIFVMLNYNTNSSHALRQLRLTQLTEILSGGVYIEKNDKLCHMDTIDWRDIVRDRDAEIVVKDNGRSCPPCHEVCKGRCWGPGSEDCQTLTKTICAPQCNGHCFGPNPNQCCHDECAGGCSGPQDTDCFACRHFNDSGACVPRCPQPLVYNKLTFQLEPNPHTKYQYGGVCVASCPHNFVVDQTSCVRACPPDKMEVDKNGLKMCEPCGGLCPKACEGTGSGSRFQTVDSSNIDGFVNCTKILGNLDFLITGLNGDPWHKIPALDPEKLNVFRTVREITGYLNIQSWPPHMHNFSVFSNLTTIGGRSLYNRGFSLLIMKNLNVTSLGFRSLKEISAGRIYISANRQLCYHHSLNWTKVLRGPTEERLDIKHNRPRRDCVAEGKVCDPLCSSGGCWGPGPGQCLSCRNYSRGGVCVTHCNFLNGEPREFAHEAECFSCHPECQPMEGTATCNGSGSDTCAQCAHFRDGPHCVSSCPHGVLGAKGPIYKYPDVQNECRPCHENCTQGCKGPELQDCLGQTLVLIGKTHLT
On to “HER3-binding Affibody molecule Z05416, displayed on S. carnosus W17A”, for which the response was 10.

In the case of “HER3-binding Affibody molecule Z05416, displayed on S. carnosus S32A”, the response amounted to 93.

“HER3-binding Affibody molecule Z05416, displayed on S. carnosus Q18A”: the response amounted to 71. Under “HER3-binding Affibody molecule Z05416, displayed on S. carnosus T11A” stands 86; under “HER3-binding Affibody molecule Z05416, displayed on S. carnosus V24A”, 78; under “HER3-binding Affibody molecule Z05416, displayed on S. carnosus R25A”, 91.

On to “HER3-binding Affibody molecule Z05416, displayed on S. carnosus K27A”, for which the response was 100. On to “HER3-binding Affibody molecule Z05416, displayed on S. carnosus F14A”, for which the response is 72. For the substance “HER3-binding Affibody molecule Z05416, displayed on S. carnosus Q35A”, the response came out at 92. Under “HER3-binding Affibody molecule Z05416, displayed on S. carnosus Y10A” stands 10; under “HER3-binding Affibody molecule Z05416, displayed on S. carnosus Y13A”, 66. As for “HER3-binding Affibody molecule Z05416, displayed on S. carnosus K9A”, the response is 43. Under “HER3-binding Affibody molecule Z05416, displayed on S. carnosus A28L” stands 87.
